In patent US20230303711A1 (BIO THERA SOLUTIONS, published 2023):
Residue numbers refer to the chain shown, from its start. In names and notes the source's numbering stands.

B1: Antibody 10 (antibody, human IgG1, kappa, V domains shown)
VH: QVQLQESGPGLVKPSETLSLTCTVSGGSLDNYYWSWIRQPPGKGLEWIGRIYYNGNTNYNPSLKSRVTISVDTSKNQFSLRLRSVTAADTAVYYCARGGRILAGYWGQGTLVTVSS
VL: DIQMTQSPSSVSASVGDRVTISCRANQAIGTWLAWYQQKPGKAPKLLIYAASTLQSGVPSRFSGSGSGTEFTLTISSLQAEDVAVYYCQQYYTTPLTFGGGTKLEIKR
notes: Full-length IgG1
B2: Antibody 3-3 (antibody, human IgG1, kappa, V domains shown)
VH: B1 VH with R50Y, N54S, L102F, A103G
VL: B1 VL
notes: Full-length IgG1
B3: Antibody 6 (antibody, human IgG1, kappa, V domains shown)
VH: B1 VH with D30N, N31D, Y53G, N56D
VL: B1 VL
notes: Full-length IgG1
B4: Antibody 11 (antibody, human IgG1, kappa, V domains shown)
VH: B1 VH with N31G, Y53D, N54G, G55S, N56G, L102F, A103G
VL: B1 VL
notes: Full-length IgG1
B5: Antibody 3-6 (antibody, human IgG1, kappa, V domains shown)
VH: B1 VH with R50Y, N54S, L102F
VL: B1 VL
notes: Full-length IgG1
B6: Antibody 3 (antibody, human IgG1, kappa, V domains shown)
VH: B1 VH with N31G, Y53G, G55S, N56T, L102F
VL: B1 VL
notes: Full-length IgG1
B7: Antibody 17-ScFv (scFv)
scFv: QVQLQESGPGLVKPSETLSLTCTVSGGSLDNYYWSWIRQPPGKGLEWIGYIYYSGNTNYNPSLKSRVTISVDTSKNQFSLRLRSVTAADTAVYYCARGGRFLERYWGQGTLVTVSSGGGGSGGGGSGGGGSDIQMTQSPSSVSASVGDRVTISCRANQAIGTWLAWYQQKPGKAPKLLIYAASTLQSGVPSRFSGSGSGTEFTLTISSLQAEDVAVYYCQQYYTTPLTFGGGTKLEIK
notes: VH C-terminus linked to VL N-terminus; Purified on a protein A column and detected with anti-human IgG Fc-PE, but no Fc or tag is described for it
B8: Antibody 6Y-G4 (antibody, human IgG4 S228P, kappa)
heavy: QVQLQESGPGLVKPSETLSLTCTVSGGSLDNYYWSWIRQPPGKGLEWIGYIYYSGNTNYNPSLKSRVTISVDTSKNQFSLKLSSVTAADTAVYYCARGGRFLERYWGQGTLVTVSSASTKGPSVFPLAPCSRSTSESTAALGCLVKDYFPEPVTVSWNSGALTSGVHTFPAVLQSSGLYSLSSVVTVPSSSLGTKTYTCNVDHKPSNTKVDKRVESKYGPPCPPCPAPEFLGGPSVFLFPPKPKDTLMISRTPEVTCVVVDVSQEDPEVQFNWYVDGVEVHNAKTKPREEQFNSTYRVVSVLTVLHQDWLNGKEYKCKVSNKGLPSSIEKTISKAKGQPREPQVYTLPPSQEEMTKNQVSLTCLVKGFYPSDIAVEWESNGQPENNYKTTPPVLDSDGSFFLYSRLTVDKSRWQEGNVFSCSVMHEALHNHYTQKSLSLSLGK
light: EIVLTQSPSSLSASVGDRVTIPCRASLSIGSFLNWYQQRPGEAPKLLIFAASSLRSGVPSRFSGSGSGTDFTLTISGLQPEDFATYYCQQTYTTPYTFGQGTKVDIKRTVAAPSVFIFPPSDEQLKSGTASVVCLLNNFYPREAKVQWKVDNALQSGNSQESVTEQDSKDSTYSLSSTLTLSKADYEKHKVYACEVTHQGLSSPVTKSFNRGEC
notes: IgG4P (S228P) form of 6Y-G1
B9: Antibody 6Y-G1 (antibody, human IgG1, kappa)
heavy: not shown
light: B8 light
notes: also called Antibody L12-6; L12-6
B10: Antibody L12 (antibody, human IgG1, kappa)
heavy: not shown
light: B8 light
notes: Full-length IgG1
B11: Antibody 18 (antibody, human IgG1, kappa, V domains shown)
VH: QVQLQESGPGLVKPSETLSLTCTVSGGSLDNYYWSWIRQPPGKGLEWIGYIYYSGNTNYNPSLKSRVTISVDTSKNQFSLRLRSVTAADTAVYYCARGRGIFGYWGQGTLVTVSS
VL: B1 VL
notes: Full-length IgG1
B12: Antibody 25 (antibody, human IgG1, kappa, V domains shown)
VH: B11 VH with R99G, G100R, Y104H
VL: B1 VL
notes: Full-length IgG1
B13: Antibody 24 (antibody, human IgG1, kappa, V domains shown)
VH: B1 VH with Y53G, N54D, G55S, N56A, L102F, A103S
VL: B1 VL
notes: Full-length IgG1
B14: Antibody 16 (antibody, human IgG1, kappa, V domains shown)
VH: B1 VH with R50Y, N54S, L102F, A103S
VL: B1 VL
notes: Full-length IgG1
B15: Antibody L5 (antibody, human IgG1, kappa)
heavy: not shown
light: B8 light with Q100P, K103R, V104L, D105E
notes: Full-length IgG1
B16: Antibody L26 (antibody, human IgG1, kappa)
heavy: not shown
light: B8 light with G77S, V104L, D105E
notes: Full-length IgG1
B17: Antibody L24 (antibody, human IgG1, kappa)
heavy: not shown
light: B8 light with E1D, V3Q, L4M, G77S, D105E
notes: Full-length IgG1
B18: Antibody L1 (antibody, human IgG1, kappa)
heavy: not shown
light: B8 light with S10T, D105E
notes: Full-length IgG1
B19: Antibody 17 (antibody, human IgG1, kappa, V domains shown)
VH: B1 VH with R50Y, N54S, I101F, A103E, G104R
VL: B1 VL
notes: Full-length IgG1
B20: Antibody L12-10 (antibody, human IgG1, kappa)
heavy: not shown
light: B8 light with G77S, D105E
notes: Full-length IgG1
B21: Antibody L12-1 (antibody, human IgG1, kappa)
heavy: not shown
light: B8 light with P22T, R39K, E42K, F49Y, G77S, D105E
notes: Full-length IgG1
B22: Antibody L12-9 (antibody, human IgG1, kappa)
heavy: not shown
light: B8 light with E1D, V3Q, L4M, P22T, R39K, E42K, F49Y, G77S, D105E
notes: Full-length IgG1
B23: Antibody L12-2 (antibody, human IgG1, kappa, V domains shown)
VH: B1 VH with R50Y, N54S, R81K, R83S, I101F, A103E, G104R
VL: EIVLTQSPSSLSASVGDRVTIPCRASLSIGSFLNWYQQRPGEAPKLLIFAASSLRSGVPSRFSGSGSGTDFTLTISSLQPEDFATYYCQQTYTTPYTFGQGTKVEIKR
notes: Full-length IgG1
B24: Antibody L12-5 (antibody, human IgG1, kappa)
heavy: not shown
light: B8 light with P22T, R39K, E42K, F49Y, G77S, D105E
notes: Full-length IgG1
B25: Antibody L12-11 (antibody, human IgG1, kappa)
heavy: not shown
light: B8 light with E1D, V3Q, L4M, P22T, R39K, E42K, F49Y, G77S, D105E
notes: Full-length IgG1
B26: Antibody L12-3 (antibody, human IgG1, kappa, V domains shown)
VH: B1 VH with R50Y, N54S, R81K, R83S, I101F, A103E, G104R
VL: B23 VL with P22T, R39K, E42K
notes: Full-length IgG1
B27: Antibody L12-7 (antibody, human IgG1, kappa)
heavy: not shown
light: B8 light with P22T, R39K, E42K, G77S, D105E
notes: Full-length IgG1
B28: Antibody L12-4 (antibody, human IgG1, kappa)
heavy: not shown
light: B8 light with R39K, E42K, G77S, D105E
notes: Full-length IgG1

Each binder was assayed against T1, His-tagged human CD47-ECD protein (CD47-His) (human, UniProt Q08722 19-139) (assay: competitive ELISA on coated CD47-His (2 µg/mL); blocked ligand SIRPα-Fc-Bio (0.1 µg/mL), HRP-streptavidin, OD450; value is parameter C of the printed 4-parameter fit).
T1 construct: Expressed in HEK293F cells; also called CD47-His antigen

IC50 | Binder
1.06 µg/mL | B1
0.939 µg/mL | B2
1.1 µg/mL | B3
0.921 µg/mL | B4
1.12 µg/mL | B5
0.844 µg/mL | B6

Each binder was assayed against T2, CD47 on the cell surface (CHO-CD47 cells, Jurkat cells, Raji cells) (human, UniProt Q08722 19-323) (assay: flow cytometry on Jurkat cells, goat anti-human IgG Fc-PE, PE-A mean fluorescence).
T2 construct: whole, on cells; One molecule is used for CD47 on CHO-CD47, Jurkat and Raji cells; also called CHO surface CD47; Jurkat cell surface CD47

EC50 (read off the curve) | Binder
~1 µg/mL | B7

The binders below were run against T2, CD47 on the cell surface (CHO-CD47 …) (assay: flow cytometry competition on CHO-CD47 cells; blocked ligand SIRPα-Fc-Bio (6.5 µg/mL), streptavidin-PE; value is parameter C of the printed 4-parameter fit).

IC50 | Binder
15.1 µg/mL | B7

Each binder was assayed against T2, CD47 on the cell surface (CHO-CD47 …) (assay: flow cytometry on CHO-CD47 cells, goat anti-human IgG Fc-PE, PE-A mean fluorescence).

EC50 (read off the curve) | Binder
~1 µg/mL | B7

Molecular target: T1, His-tagged human CD47-ECD protein …
Test: competitive ELISA on coated CD47-His (2 µg/mL); blocked ligand SIRPα-Fc-Bio (0.1 µg/mL), HRP-streptavidin, OD450; value is parameter C of the printed 4-parameter fit
Remark: another data set of the same source

IC50 | Binder
0.763 µg/mL | B8
0.913 µg/mL | B9

Molecular target: T1, His-tagged human CD47-ECD protein …
Test: as above
Remark: another data set of the same source

IC50 | Binder
1.18 µg/mL | B10
1.23 µg/mL | B11
1.31 µg/mL | B12
1.41 µg/mL | B13
0.975 µg/mL | B14

Molecular target: T1, His-tagged human CD47-ECD protein …
Test: as above
Remark: another data set of the same source

IC50 | Binder
1.02 µg/mL | B15
1.02 µg/mL | B16
1.09 µg/mL | B17
0.967 µg/mL | B18
0.795 µg/mL | B19

These binders were tested against T3, macaque CD47-Fc (macaque, UniProt A0A2K5X523 19-141) (assay: ELISA on coated macaque CD47-Fc; row printed as Affinity (µg/mL)).
T3 construct: Bought reagent; not shown: Fc part of the bought fusion and any linker to it
T3 sequence (A0A2K5X523 entry or part of it limits assumed): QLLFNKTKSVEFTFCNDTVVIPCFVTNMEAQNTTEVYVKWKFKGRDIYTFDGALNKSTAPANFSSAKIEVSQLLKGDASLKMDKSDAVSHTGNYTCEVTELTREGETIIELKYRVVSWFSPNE

EC50 | Binder
0.11 µg/mL | B8
0.083 µg/mL | B9
0.066 µg/mL | B10
0.064 µg/mL | B19

These binders were tested against T1, His-tagged human CD47-ECD protein … (assay: competitive ELISA on coated CD47-His (2 µg/mL); blocked ligand SIRPα-Fc-Bio (0.1 µg/mL), HRP-streptavidin, OD450; value is parameter C of the printed 4-parameter fit; inhibition is partial (A 1.373, D 0.661)).

IC50 | Binder
0.936 µg/mL | B7

The binders below were run against T1, His-tagged human CD47-ECD protein … (assay: BLI (Fortebio), antibody on protein A sensor, CD47-His in solution).

Kd | Binder
0.195 nM | B20
0.152 nM | B21
0.124 nM | B22
0.122 nM | B23
0.138 nM | B24
0.142 nM | B9
0.112 nM | B10
0.175 nM | B25
0.144 nM | B26
0.149 nM | B27
0.107 nM | B28
